We go through 6 substances from article PMC7295778.

For orientation: stoichiometry N means the number of molecules, sites or subunits per partner or assembly.

The target in assay [1] is KirBac3.1 A133C-T136C (Cys-less background C262S, C71V, C119V) crosslinked with MTS-1-MTS (UniProt D9N164). In words: cross-linking; purified cysteine-pair mutants at 0.03-4 mg/ml in 20 mM TRIS pH 8.0, 150 mM KCl, 0.02% DDM; MTS-1-MTS 0.5 mM, dibromobimane 2.5 mM or CuSO4 1 mM, room temperature, 30 min; read by SDS-PAGE.
Assay [2] shares this target. Put plainly: native MS; 200 mM ammonium acetate pH 8.0, 0.5% C8E4; Q-ToF and QExactive; collision-induced dissociation in the gas phase on the Q-ToF.
Assay [3] concerns the target KirBac3.1 A133C-T136C (Cys-less background C262S, C71V, C119V) crosslinked with dibromobimane (UniProt D9N164). Put plainly: cross-linking; purified cysteine-pair mutants at 0.03-4 mg/ml in 20 mM TRIS pH 8.0, 150 mM KCl, 0.02% DDM; MTS-1-MTS 0.5 mM, dibromobimane 2.5 mM or CuSO4 1 mM, room temperature, 30 min; read by SDS-PAGE.
Assay [4] has the same target. In words: native MS; 200 mM ammonium acetate pH 8.0, 0.5% C8E4; Q-ToF and QExactive; collision-induced dissociation in the gas phase on the Q-ToF.
The target of assay [5] is KirBac3.1 A133C-T136C (Cys-less background C262S, C71V, C119V), disulfide-linked (UniProt D9N164). In words: cross-linking; purified cysteine-pair mutants at 0.03-4 mg/ml in 20 mM TRIS pH 8.0, 150 mM KCl, 0.02% DDM; MTS-1-MTS 0.5 mM, dibromobimane 2.5 mM or CuSO4 1 mM, room temperature, 30 min; read by SDS-PAGE.
For assay [6] the target is unchanged. Put plainly: native MS; 200 mM ammonium acetate pH 8.0, 0.5% C8E4; Q-ToF and QExactive; collision-induced dissociation in the gas phase on the Q-ToF.
Assay [7] concerns the target KirBac3.1 S129C-F135C (Cys-less background C262S, C71V, C119V) crosslinked with MTS-1-MTS (UniProt D9N164). Put plainly: cross-linking; purified cysteine-pair mutants at 0.03-4 mg/ml in 20 mM TRIS pH 8.0, 150 mM KCl, 0.02% DDM; MTS-1-MTS 0.5 mM, dibromobimane 2.5 mM or CuSO4 1 mM, room temperature, 30 min; read by SDS-PAGE.
Assay [8] has the same target. In words: native MS; 200 mM ammonium acetate pH 8.0, 0.5% C8E4; Q-ToF and QExactive; collision-induced dissociation in the gas phase on the Q-ToF.
Assay [9] has as its target KirBac3.1 S129C-F135C (Cys-less background C262S, C71V, C119V) crosslinked with dibromobimane (UniProt D9N164). In words: cross-linking; purified cysteine-pair mutants at 0.03-4 mg/ml in 20 mM TRIS pH 8.0, 150 mM KCl, 0.02% DDM; MTS-1-MTS 0.5 mM, dibromobimane 2.5 mM or CuSO4 1 mM, room temperature, 30 min; read by SDS-PAGE.
The target is the same in assay [10]. Put plainly: native MS; 200 mM ammonium acetate pH 8.0, 0.5% C8E4; Q-ToF and QExactive; collision-induced dissociation in the gas phase on the Q-ToF.
In assay [11] the target is KirBac3.1 S129C-F135C (Cys-less background C262S, C71V, C119V), disulfide-linked (UniProt D9N164). Put plainly: cross-linking; purified cysteine-pair mutants at 0.03-4 mg/ml in 20 mM TRIS pH 8.0, 150 mM KCl, 0.02% DDM; MTS-1-MTS 0.5 mM, dibromobimane 2.5 mM or CuSO4 1 mM, room temperature, 30 min; read by SDS-PAGE.
For assay [12] the target is unchanged. In words: native MS; 200 mM ammonium acetate pH 8.0, 0.5% C8E4; Q-ToF and QExactive; collision-induced dissociation in the gas phase on the Q-ToF.

In the case of “KirBac3.1 A133C-T136C (Cys-less background C262S, C71V, C119V) crosslinked with MTS-1-MTS (from UniProt D9N164 1-295) (natural protein)”, the stoichiometry N in assay [1] and in [2] was 4 each time.

As to “KirBac3.1 A133C-T136C (Cys-less background C262S, C71V, C119V) crosslinked with dibromobimane (from UniProt D9N164 1-295) (natural protein)”, the stoichiometry N in assay [3] and in assay [4] was 4 in each case.

For the substance “KirBac3.1 A133C-T136C (Cys-less background C262S, C71V, C119V), disulfide-linked (from UniProt D9N164 1-295) (natural protein)”, the stoichiometry N in assay [5] and in [6] was 4 each time.

“KirBac3.1 S129C-F135C (Cys-less background C262S, C71V, C119V) crosslinked with MTS-1-MTS (from UniProt D9N164 1-295) (natural protein)”: the stoichiometry N in assay [7] and in [8] was 4 in each case.

As to “KirBac3.1 S129C-F135C (Cys-less background C262S, C71V, C119V) crosslinked with dibromobimane (from UniProt D9N164 1-295) (natural protein)”, the stoichiometry N in [9] and in [10] was 4 throughout.

In the case of “KirBac3.1 S129C-F135C (Cys-less background C262S, C71V, C119V), disulfide-linked (from UniProt D9N164 1-295) (natural protein)”, the stoichiometry N in [11] and in assay [12] was 4 in each case.
